Measurements from PMC6125681, “Stability of local secondary structure determines selectivity of viral RNA chaperones”.
Where “and” joins values, the source holds several entries; their conditions need not be identical. Equal entries are not always repeated.

Assays:
[1] = biological target: T1, σNS (Avian reovirus (strain not given)) (UniProt W8NR44); test: fluorescence anisotropy
T1 sequence: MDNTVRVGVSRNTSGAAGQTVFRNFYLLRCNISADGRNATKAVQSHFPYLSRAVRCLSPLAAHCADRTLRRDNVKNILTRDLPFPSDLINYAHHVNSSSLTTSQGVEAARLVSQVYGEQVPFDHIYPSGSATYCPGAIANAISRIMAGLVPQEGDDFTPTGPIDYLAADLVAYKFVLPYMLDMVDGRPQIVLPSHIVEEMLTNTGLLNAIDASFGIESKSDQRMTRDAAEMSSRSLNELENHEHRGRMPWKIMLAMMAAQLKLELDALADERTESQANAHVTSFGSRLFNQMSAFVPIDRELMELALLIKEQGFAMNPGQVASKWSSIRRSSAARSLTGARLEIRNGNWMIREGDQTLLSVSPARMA

[2] = biological target: avian reovirus (ARV) σNS (avian reovirus); test: native MS; nanoESI-IMS-MS of σNS apoprotein, 20 μM, 200 mM ammonium acetate pH 7.6; no RNA
[3] = biological target: avian reovirus (ARV) σNS (avian reovirus); test: native MS; nanoESI-IMS-MS of σNS–RNP complex (σNS saturated with unstructured 20mer RNA), 20 μM, 200 mM ammonium acetate pH 7.6
[4] = biological target: avian reovirus (ARV) σNS (avian reovirus); test: native MS; nanoESI-IMS-MS of σNS apoprotein, 20 μM, 200 mM ammonium acetate pH 7.6; no RNA; remark: listed apart in the source
NSP2 [5] = biological target: T2, NSP2 (Rotavirus (strain  in …, UniProt A2T3N6 1-317)); test: fluorescence anisotropy; no Mg2+; one value given for all three RNAs; settings: protein: recombinant, chain copies: 8, label: 5' AlexaFluor488, hairpin
T2 sequence: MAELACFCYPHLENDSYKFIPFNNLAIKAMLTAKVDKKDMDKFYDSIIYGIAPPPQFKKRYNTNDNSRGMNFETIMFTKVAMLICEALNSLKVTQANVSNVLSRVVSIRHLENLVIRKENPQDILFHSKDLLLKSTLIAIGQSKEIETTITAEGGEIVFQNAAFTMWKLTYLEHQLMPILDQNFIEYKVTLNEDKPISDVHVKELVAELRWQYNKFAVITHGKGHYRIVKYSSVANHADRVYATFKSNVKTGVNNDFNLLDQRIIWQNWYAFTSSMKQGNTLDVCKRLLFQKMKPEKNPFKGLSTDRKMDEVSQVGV

NSP2 [6] = biological target: T2, NSP2; test: fluorescence anisotropy; no Mg2+; settings: protein: recombinant; chain copies: 8; label: 5' AlexaFluor488; unstructured, MFE 0
NSP2 [7] = biological target: T2, NSP2; test: fluorescence anisotropy; 10 mM MgCl2; settings: protein: recombinant; chain copies: 8; label: 5' AlexaFluor488; unstructured, MFE 0
NSP2 [8] = biological target: T2, NSP2; test: FCCS; multiple RNAs per octamer; settings: protein: recombinant; chain copies: 8; label: Cy3 or Cy5 (same string printed for both); unstructured; text calls the two labelled RNAs distinct non-complementary
NSP2 [9] = biological target: T2, NSP2; test: single-pair FRET; 25 nM protein; binds folded and unfolded RNA; settings: protein: recombinant; chain copies: 8; Methods state the reverse; hairpin, -8.9 kcal/mol

## CUUUUCAAGACAUGCAACAA [unstructured 20mer]
[1]
  Kd: 37 nM
  binding signal (fold Kd increase vs no Mg2+): 1.5

## avian reovirus (ARV) σNS (natural protein)
[2]
  stoichiometry N: 8
[3]
  stoichiometry N: 8 and 6
[4]
  stoichiometry N: 6

## CUUCUUUCGAAAUUAAGAAG [metastable 20mer]
[1]
  Kd: 24 nM

## UCUUUGCAAACAUGCAAAGA [stable 20mer hairpin]
[1]
  Kd: 137 nM

## UCUUUGCAAACAUGCAAAGA (structured_RNA) [stable 20mer hairpin]
NSP2 [5]; -8.1 kcal/mol
  Kd: ~20 nM

## CUUUUCAAGACAUGCAACAA (ssRNA) [unstructured 20mer]
NSP2 [6]
  Kd: 20.7 ± 1.67 nM
NSP2 [7]
  Kd: 28 ± 1.48 nM

## UUCCUUCUAUUUCUUCU (ssRNA) [17mer (S11-derived)]
NSP2 [8]
  binding result: binds

## AAAUCUUUGCAAACUAUCCAAUCCAUGCAAAGAUAA (structured_RNA) [dual-labelled 36mer stem-loop]
NSP2 [9]
  binding result: binds

## CUUCUUUCGAAAUUAAGAAG (structured_RNA) [metastable 20mer]
NSP2 [5]; -3.8 kcal/mol
  Kd: ~20 nM
